# In US20250236901A1, “METHOD OF DETECTING A MICROORGANISM HAVING HIPPURICASE ACTIVITY” (BIOSYNTH AG, priority 2022, published 2025):
# B1: GOD: glucose oxidase (GOD, Merck G2133), hydrogen peroxide-generating enzyme (protein, UniProt P13006 17-605, looked up)
# Glucose oxidase: LPHYIRSNGIEASLLTDPKDVSGRTVDYIIAGGGLTGLTTAARLTENPNISVLVIESGSYESDRGPIIEDLNAYGDIFGSSVDHAYETVELATNNQTALIRSGNGLGGSTLVNGGTWTRPHKAQVDSWETVFGNEGWNWDNVAAYSLQAERARAPNAKQIAAGHYFNASCHGVNGTVHAGPRDTGDDYSPIVKALMSAVEDRGVPTKKDFGCGDPHGVSMFPNTLHEDQVRSDAAREWLLPNYQRPNLQVLTGQYVGKVLLSQNGTTPRAVGVEFGTHKGNTHNVYAKHEVLLAAGSAVSPTILEYSGIGMKSILEPLGIDTVVDLPVGLNLQDQTTATVRSRITSAGAGQGQAAWFATFNETFGDYSEKAHELLNTKLEQWAEEAVARGGFHNTTALLIQYENYRDWIVNHNVAYSELFLDTAGVASFDVWDLLPFTRGYVHILDKDPYLHHFAYDPQYFLNELDLLGQAAATQLARNISNSGAMQTYFAGETIPGDNLAYDADLSAWTEYIPYHFRPNYHGVGTCSMMPKEMGGVVDNAARVYGVQGLRVIDGSIPPTQMSSHVMTVFYAMALKISDAILEDYASMQ
# System: Campylobacter jejuni DSM 4688
# Assay: Detection of hippuricase activity with 4-HHA, 4-aminoantipyrine and oxidizing reagent (color / absorbance at 505 nm)
# Assay type: cell-based
# Conditions: FIG. 7B; varied 0 to 4 U/mL; 10 mM 4-HHA; 0.5 mM 4-AAP, 4.5 U/mL HRP, 10 mM glucose
# Method: Campylobacter jejuni DSM 4688 (C. j., catalase positive), Eschericha coli (E. coli, catalase positive) and Campylobacter coli DSM 4689 (C. c., catalase positive), Streptococcus agalactiae ATCC®12386 (S. a., catalase negative) and Streptococcus pyogenes ATCC®19615 (S. p., catalase negative) were cultivated on Columbia Agar with sheep blood (Thermofischer PB5039A) at 37° C. for 48 h, both Campylobacter strains were cultivated under microaerophilic atmosphere (Oxoid, Campylgen CN0025A).
# Biomass of colonies were suspended in sterile phosphate buffer (100 mM, pH 7.4) and the optical density OD was determined and set to OD600 of 0.9.
# Two hundred μL of cell suspensions were mixed with 25 μL of 4-hydroxyhippuric acid (4-HHA, Bachem, 4005059) stock solution, prepared in 100 mM phosphate buffer pH adjusted to 7.4 in a microtiter plate (SpektraMax M5, Molecular Devices) and incubated for 70 minutes at 37° C. […] The absorbance at 505 nm was recorded with a plate reader at room temperature. […]
# Two hundred μL of cell suspensions were mixed with 25 μL of 100 mM 4-hydroxyhippuric acid (4-HHA, Bachem 4005059) prepared in 100 mM phosphate buffer pH adjusted to 7.4) in a microtiter plate and incubated for 1 h at 37° C. […] The absorbance at 505 nm was recorded with a plate reader (SpektraMax M5, Molecular Devices) at room temperature. […]
molecule,measurement,value
B1,GOD enzyme activity sufficient for the reaction,1 U/mL
